Measurements reported in PMC11320570.

Tests used:
Assay in all cases: ELISA
[1] = target: 513 engineered and humanized antibody
[2] = target: 2H12 mouse antibody
[3] = target: 3H5 mouse antibody

Substance | Kd [1] [nM] | Kd [2] [nM] | Kd [3] [nM]
DENV-2 EDIII wild-type Fc-fusion antigen S298N; S300T | 0.075 | 0.71 | 0.82
DENV-2 EDIII wild-type Fc-fusion antigen S298N; S300T; H317N | 0.081 |  | 0.82
DENV-2 EDIII wild-type Fc-fusion antigen S298N; S300T; V309N; E311T; H317N | > 0.265 |  | 0.78
